Test results published in paper PMC12077208 (2025).

Target: nuclear translocation factor 2-like (NTF2L) domain of human G3BP1 (human, UniProt Q13283-1 1-138)
Test: ITC

Sequence of nuclear translocation factor 2-like (NTF2L) domain of human G3BP1 (Q13283 other isoform, or with tags, fused parts or gaps): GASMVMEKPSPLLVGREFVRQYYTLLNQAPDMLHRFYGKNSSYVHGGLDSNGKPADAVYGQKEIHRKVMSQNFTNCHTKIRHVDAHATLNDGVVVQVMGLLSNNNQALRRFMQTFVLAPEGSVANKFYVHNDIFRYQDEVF

B1: CHIKV nsP3 peptide CHIKV-43 (residues Glu469-Thr511) (peptide)
chain: GPLGSETFPITFGDFNDGEIESLSSELLTFGDFLPGEVDDLTDSDWSTHHHHHH
Kd: 0.078 µM

ITFGDFNDGEIESLSSELLTFGDFLP [CHIKV-26 peptide (residues Ile473 to Pro498 of CHIKV nsP3, without the α2 region)]
Kd: 7.8 µM
